Experimental data: IntAct's records for PubMed 25910212

B1: Acetylcholine receptor subunit gamma (Homo sapiens), P07510-2 (parent)
chain: MHGGQGPLLLLLLLAVCLGAQGRNQEERLLADLMQNYDPNLRPAERDSDVVNVSLKLTLTNLISLNEREEALTTNVWIEMQWCDYRLRWDPRDYEGLWVLRVPSTMVWRPDIVLENKSQTYSTNEIDLQLSQEDGQTIEWIFIDPEAFTENGEWAIQHRPAKMLLDPAAPAQEAGHQKVVFYLLIQRKPLFYVINIIAPCVLISSVAILIHFLPAKAGGQKCTVAINVLLAQTVFLFLVAKKVPETSQAVPLISKYLTFLLVVTILIVVNAVVVLNVSLRSPHTHSMARGVRKVFLRLLPQLLRMHVRPLAPAAVQDTQSRLQNGSSGWSITTGEEVALCLPRSELLFQQWQRQGLVAAALEKLEKGPELGLSQFCGSLKQAAPAIQACVEACNLIACARHQQSHFDNGNEEWFLVGRVLDRVCFLAMLSLFICGTAGIFLMAHYNRVPALPFPGDPRPYLPSPD
partner: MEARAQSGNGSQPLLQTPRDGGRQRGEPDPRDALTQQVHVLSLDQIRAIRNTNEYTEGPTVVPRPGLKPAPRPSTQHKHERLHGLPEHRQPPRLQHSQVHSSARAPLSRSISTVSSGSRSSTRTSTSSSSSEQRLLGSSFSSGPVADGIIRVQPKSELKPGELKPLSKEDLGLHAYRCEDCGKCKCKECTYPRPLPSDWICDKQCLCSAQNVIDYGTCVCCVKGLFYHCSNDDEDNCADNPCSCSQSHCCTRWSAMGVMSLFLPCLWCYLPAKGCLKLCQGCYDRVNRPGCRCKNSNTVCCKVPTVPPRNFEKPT
B2: Phakinin (Homo sapiens), Q13515 (parent)
chain: MSERRVVVDLPTSASSSMPLQRRRASFRGPRSSSSLESPPASRTNAMSGLVRAPGVYVGTAPSGCIGGLGARVTRRALGISSVFLQGLRSSGLATVPAPGLERDHGAVEDLGGCLVEYMAKVHALEQVSQELETQLRMHLESKATRSGNWGALRASWASSCQQVGEAVLENARLMLQTETIQAGADDFKERYENEQPFRKAAEEEINSLYKVIDEANLTKMDLESQIESLKEELGSLSRNYEEDVKLLHKQLAGCELEQMDAPIGTGLDDILETIRIQWERDVEKNRVEAGALLQAKQQAEVAHMSQTQEEKLAAALRVELHNTSCQVQSLQAETESLRALKRGLENTLHDAKHWHDMELQNLGAVVGRLEAELREIRAEAEQQQQERAHLLARKCQLQKDVASYHALLDREESG
partner: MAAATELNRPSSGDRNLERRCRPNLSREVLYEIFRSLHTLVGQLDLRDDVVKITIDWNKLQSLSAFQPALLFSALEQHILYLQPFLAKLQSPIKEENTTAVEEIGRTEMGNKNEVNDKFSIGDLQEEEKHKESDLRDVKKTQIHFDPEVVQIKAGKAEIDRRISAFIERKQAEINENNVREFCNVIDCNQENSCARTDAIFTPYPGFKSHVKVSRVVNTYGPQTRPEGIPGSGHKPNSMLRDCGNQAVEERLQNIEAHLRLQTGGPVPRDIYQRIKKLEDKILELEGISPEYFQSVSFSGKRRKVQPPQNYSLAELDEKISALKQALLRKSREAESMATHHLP
B3: Cytidine deaminase (Homo sapiens), P32320 (parent)
chain: MAQKRPACTLKPECVQQLLVCSQEAKKSAYCPYSHFPVGAALLTQEGRIFKGCNIENACYPLGICAERTAIQKAVSEGYKDFRAIAIASDMQDDFISPCGACRQVMREFGTNWPVYMTKPDGTYIVMTVQELLPSSFGPEDLQKTQ
partner: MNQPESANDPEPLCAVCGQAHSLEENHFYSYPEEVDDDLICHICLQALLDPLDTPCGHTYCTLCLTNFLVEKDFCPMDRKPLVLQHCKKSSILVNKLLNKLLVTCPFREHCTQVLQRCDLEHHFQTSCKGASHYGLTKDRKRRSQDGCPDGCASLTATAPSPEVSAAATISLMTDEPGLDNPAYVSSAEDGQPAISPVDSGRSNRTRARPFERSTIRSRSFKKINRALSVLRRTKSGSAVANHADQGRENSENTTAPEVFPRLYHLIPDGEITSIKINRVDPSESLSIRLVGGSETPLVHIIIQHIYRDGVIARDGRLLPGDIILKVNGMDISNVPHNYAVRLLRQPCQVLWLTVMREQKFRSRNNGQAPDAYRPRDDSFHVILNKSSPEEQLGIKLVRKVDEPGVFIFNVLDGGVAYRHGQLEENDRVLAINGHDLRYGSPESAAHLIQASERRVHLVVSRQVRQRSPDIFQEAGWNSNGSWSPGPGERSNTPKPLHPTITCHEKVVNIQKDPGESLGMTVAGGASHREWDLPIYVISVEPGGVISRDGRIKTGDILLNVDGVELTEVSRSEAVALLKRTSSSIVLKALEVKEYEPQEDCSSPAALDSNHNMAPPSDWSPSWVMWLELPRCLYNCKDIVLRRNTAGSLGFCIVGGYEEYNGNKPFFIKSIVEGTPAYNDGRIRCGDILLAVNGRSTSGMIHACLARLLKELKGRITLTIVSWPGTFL
B4: Transmembrane protein 43 (Homo sapiens), Q9BTV4 (parent)
chain: MAANYSSTSTRREHVKVKTSSQPGFLERLSETSGGMFVGLMAFLLSFYLIFTNEGRALKTATSLAEGLSLVVSPDSIHSVAPENEGRLVHIIGALRTSKLLSDPNYGVHLPAVKLRRHVEMYQWVETEESREYTEDGQVKKETRYSYNTEWRSEIINSKNFDREIGHKNPSAMAVESFMATAPFVQIGRFFLSSGLIDKVDNFKSLSLSKLEDPHVDIIRRGDFFYHSENPKYPEVGDLRVSFSYAGLSGDDPDLGPAHVVTVIARQRGDQLVPFSTKSGDTLLLLHHGDFSAEEVFHRELRSNSMKTWGLRAAGWMAMFMGLNLMTRILYTLVDWFPVFRDLVNIGLKAFAFCVATSLTLLTVAAGWLFYRPLWALLIAGLALVPILVARTRVPAKKLE
partner: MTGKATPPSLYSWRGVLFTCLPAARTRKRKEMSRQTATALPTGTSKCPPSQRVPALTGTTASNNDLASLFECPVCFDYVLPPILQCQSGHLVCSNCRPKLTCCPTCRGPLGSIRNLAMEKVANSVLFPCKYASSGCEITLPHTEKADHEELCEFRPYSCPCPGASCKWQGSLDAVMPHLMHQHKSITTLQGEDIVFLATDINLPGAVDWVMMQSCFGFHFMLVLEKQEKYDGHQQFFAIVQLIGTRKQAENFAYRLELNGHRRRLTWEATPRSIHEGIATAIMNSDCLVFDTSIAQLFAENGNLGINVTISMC
B5: Regulator of G-protein signaling 2 (Homo sapiens), P41220 (parent)
chain: MQSAMFLAVQHDCRPMDKSAGSGHKSEEKREKMKRTLLKDWKTRLSYFLQNSSTPGKPKTGKKSKQQAFIKPSPEEAQLWSEAFDELLASKYGLAAFRAFLKSEFCEENIEFWLACEDFKKTKSPQKLSSKARKIYTDFIEKEAPKEINIDFQTKTLIAQNIQEATSGCFTTAQKRVYSLMENNSYPRFLESEFYQDLCKKPQITTEPHAT
B6: SH2 domain-containing protein 1A (Homo sapiens), O60880 (parent)
chain: MDAVAVYHGKISRETGEKLLLATGLDGSYLLRDSESVPGVYCLCVLYHGYIYTYRVSQTETGSWSAETAPGVHKRYFRKIKNLISAFQKPDQGIVIPLQYPVEKKSSARSTQGTTGIREDPDVCLKAP

Variants of: B1
Conditions: with spy2_human SPRY2, O43597

Row | effect of a mutation on the interaction | Variant
1 | disrupting interaction strength | V107G
2 | disrupting interaction strength | R86C

Variants of: B2
Conditions: with MBIP

Row | effect of a mutation on the interaction | Variant
3 | with no effect | A407D
4 | with no effect | R339H

Variants of: B3
Conditions: with lnx1_human LNX1, Q8TBB1

Row | effect of a mutation on the interaction | Variant
5 | with no effect | A70T

Variants of: B4
Conditions: with SIAH1, Q8IUQ4-2

Row | effect of a mutation on the interaction | Variant
6 | with no effect | S358L

Variants of: B5
Conditions: with MTUS2, Q5JR59-3
Sequence of MTUS2, Q5JR59-3 (Q5JR59 other isoform, or with tags, fused parts or gaps): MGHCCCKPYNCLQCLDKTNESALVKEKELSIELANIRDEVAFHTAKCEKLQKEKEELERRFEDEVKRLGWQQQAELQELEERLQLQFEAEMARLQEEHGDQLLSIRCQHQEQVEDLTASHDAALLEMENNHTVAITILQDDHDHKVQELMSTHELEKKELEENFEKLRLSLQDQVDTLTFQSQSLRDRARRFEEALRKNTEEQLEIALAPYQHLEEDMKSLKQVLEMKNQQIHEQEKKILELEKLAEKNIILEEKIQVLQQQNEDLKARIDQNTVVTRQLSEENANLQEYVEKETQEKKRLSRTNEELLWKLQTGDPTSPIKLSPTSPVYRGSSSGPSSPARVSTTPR

Row | effect of a mutation on the interaction | Variant
7 | with no effect | R44H
8 | with no effect | Q2L
9 | with no effect | Q2R

Variants of: B6
Conditions: with TNK2, Q07912-2
Sequence of TNK2, Q07912-2 (Q07912 other isoform, or with tags, fused parts or gaps): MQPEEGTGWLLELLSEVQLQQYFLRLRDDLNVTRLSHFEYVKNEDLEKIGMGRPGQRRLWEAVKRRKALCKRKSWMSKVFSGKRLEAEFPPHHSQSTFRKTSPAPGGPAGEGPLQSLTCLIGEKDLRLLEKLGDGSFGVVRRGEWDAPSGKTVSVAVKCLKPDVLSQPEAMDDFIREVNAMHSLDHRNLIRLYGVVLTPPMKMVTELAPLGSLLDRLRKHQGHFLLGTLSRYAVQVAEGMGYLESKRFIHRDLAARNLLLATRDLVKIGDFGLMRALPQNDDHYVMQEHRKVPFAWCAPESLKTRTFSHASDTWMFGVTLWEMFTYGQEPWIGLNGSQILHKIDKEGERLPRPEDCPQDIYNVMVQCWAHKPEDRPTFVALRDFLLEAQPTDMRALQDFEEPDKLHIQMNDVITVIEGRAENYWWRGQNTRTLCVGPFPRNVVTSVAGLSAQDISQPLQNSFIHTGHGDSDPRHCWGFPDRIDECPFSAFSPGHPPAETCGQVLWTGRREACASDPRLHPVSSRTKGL

Row | effect of a mutation on the interaction | Variant
10 | with no effect | G93D
